Results taken from US20070148163A1 (Kyowa Kirin, published 2007).
cellulose membrane = not defined here

Legend:
Experiment in all cases: SPOT peptide array (13-mers on cellulose membrane), Western-type detection, spot intensity by LumiImager
[1] = molecular target: T1, 12th of the 82 13-mer peptides covering the extracellular region of CD40 (reading uncertain)
T1 construct: also called 12th peptide
T1 peptide: Ac-PGQKLVSDCTEFT-{cellulose membrane}
Method: (§1) The reaction thereafter was carried out based on a conventional Western analysis (see Reineke, U. et al. (2001), “Epitope mapping with synthetic peptides prepared by SPOT synthesis.” Antibody Engineering (Springer Lab Manual) Eds.: Kontermann/Dubel, 433-459, for example). In the analysis, coloring intensity of each spot was quantified using Lumilmager™ (Boehringer-Mannheim Corp.) (FIG. 1A-1, 1A-2, 1B-1 and B-2).

[2] = molecular target: T2, 13th of the 82 13-mer peptides covering the extracellular region of CD40 (reading uncertain)
T2 construct: also called 13th peptide
T2 peptide: Ac-QKLVSDCTEFTET-{cellulose membrane}
Method: as §1

[3] = molecular target: T3, 14th of the 82 13-mer peptides covering the extracellular region of CD40 (cysteine pairing not given here; reading uncertain)
T3 construct: also called 14th peptide
T3 peptide: Ac-LVSDCTEFTETEC-{cellulose membrane}
Method: as §1

[4] = molecular target: T4, 15th of the 82 13-mer peptides covering the extracellular region of CD40 (cysteine pairing not given here; reading uncertain)
T4 construct: also called 15th peptide
T4 peptide: Ac-SDCTEFTETECLP-{cellulose membrane}
Method: as §1

[5] = molecular target: T5, 16th of the 82 13-mer peptides covering the extracellular region of CD40 (cysteine pairing not given here; reading uncertain)
T5 construct: also called 16th peptide
T5 peptide: Ac-CTEFTETECLPCG-{cellulose membrane}
Method: as §1

[6] = molecular target: T6, 17th of the 82 13-mer peptides covering the extracellular region of CD40 (cysteine pairing not given here; reading uncertain)
T6 construct: also called 17th peptide
T6 peptide: Ac-EFTETECLPCGES-{cellulose membrane}
Method: as §1

[7] = molecular target: T7, 18th of the 82 13-mer peptides covering the extracellular region of CD40 (cysteine pairing not given here; reading uncertain)
T7 construct: also called 18th peptide
T7 peptide: Ac-TETECLPCGESEF-{cellulose membrane}
Method: as §1

[8] = molecular target: T8, 19th of the 82 13-mer peptides covering the extracellular region of CD40 (cysteine pairing not given here; reading uncertain)
T8 construct: also called 19th peptide
T8 peptide: Ac-TECLPCGESEFLD-{cellulose membrane}
Method: as §1

[9] = molecular target: T9, 20th of the 82 13-mer peptides covering the extracellular region of CD40 (cysteine pairing not given here; reading uncertain)
T9 construct: also called 20th peptide
T9 peptide: Ac-CLPCGESEFLDTW-{cellulose membrane}
Method: as §1

[10] = molecular target: T10, 21st of the 82 13-mer peptides covering the extracellular region of CD40 (reading uncertain)
T10 construct: also called 21st peptide
T10 peptide: Ac-PCGESEFLDTWNR-{cellulose membrane}
Method: as §1

[11] = molecular target: T11, 22nd of the 82 13-mer peptides covering the extracellular region of CD40 (reading uncertain)
T11 construct: also called 22nd peptide
T11 peptide: Ac-GESEFLDTWNRET-{cellulose membrane}
Method: as §1

[12] = molecular target: T12, 23rd of the 82 13-mer peptides covering the extracellular region of CD40 (reading uncertain)
T12 construct: also called 23rd peptide
T12 peptide: Ac-SEFLDTWNRETHC-{cellulose membrane}
Method: as §1

[13] = molecular target: T13, 64th of the 82 13-mer peptides covering the extracellular region of CD40 (reading uncertain)
T13 construct: also called 64th peptide
T13 peptide: Ac-PVGFFSNVSSAFE-{cellulose membrane}
Method: as §1

Measured: binding result

B1: 2105 antibody (original IgG2) (antibody, V domains shown)
VH: EVQLVESGGGLVQPGRSLRLSCAASGFTFDDYAMHWVRQAPGKGLEWVSGISWNSGSLVHADSVKGRFTISRDNAKNSLYLQMNSLRAEDTALYYCARDRLFRGVRYYGMDVWGQGTTVTVSS
VL: EIVLTQSPATLSLSPGERATLSCRASQSVSSYLAWYQQKPGQAPRLLIYDASNRATGIPARFSGSGSGTDFTLTISSLEPEDFAVYYCQQRSHWLTFGGGTKVEIK
binds: [1] | [2] | [3] | [4] | [5] | [6] | [7] | [8] | [9] | [10] | [11] | [12] | [13]
